Results from publication PMC4838544 (Gene, 2016).

Biological target: T1, E. coli topoisomerase I with a N-terminus 6x-His tag (E. coli, UniProt P06612 1-865)
T1 sequence (looked up): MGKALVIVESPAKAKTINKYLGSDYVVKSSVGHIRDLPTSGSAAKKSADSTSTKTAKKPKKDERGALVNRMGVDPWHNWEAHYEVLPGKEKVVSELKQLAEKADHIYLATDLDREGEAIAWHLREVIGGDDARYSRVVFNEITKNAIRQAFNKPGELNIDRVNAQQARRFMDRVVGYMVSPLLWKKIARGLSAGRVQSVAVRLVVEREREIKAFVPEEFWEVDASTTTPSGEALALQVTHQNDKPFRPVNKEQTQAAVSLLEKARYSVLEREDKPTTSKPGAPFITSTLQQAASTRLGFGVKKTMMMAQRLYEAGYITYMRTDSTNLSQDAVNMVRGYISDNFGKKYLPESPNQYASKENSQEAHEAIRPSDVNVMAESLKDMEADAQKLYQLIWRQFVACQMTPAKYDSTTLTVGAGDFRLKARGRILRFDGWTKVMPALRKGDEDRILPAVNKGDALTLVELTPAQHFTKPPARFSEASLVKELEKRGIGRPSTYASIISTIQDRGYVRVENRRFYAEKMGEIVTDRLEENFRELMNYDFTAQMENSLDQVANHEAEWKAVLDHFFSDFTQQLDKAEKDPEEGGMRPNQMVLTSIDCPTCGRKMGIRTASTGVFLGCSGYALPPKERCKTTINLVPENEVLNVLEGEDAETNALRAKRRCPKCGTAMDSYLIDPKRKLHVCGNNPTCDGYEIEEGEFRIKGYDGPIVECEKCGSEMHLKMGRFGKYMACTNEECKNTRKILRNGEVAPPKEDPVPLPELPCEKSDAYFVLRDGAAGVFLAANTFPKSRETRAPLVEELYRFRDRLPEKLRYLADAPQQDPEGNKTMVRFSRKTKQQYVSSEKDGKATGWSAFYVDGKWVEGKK
Experiment: pull-down

B1: Purified E. coli RecA (natural protein)
chain: AIDENKQKALAAALGQIEKQFGKGSIMRLGEDRSMDVETISTGSLSLDIALGAGGLPMGRIVEIYGPESSGKTTLTLQVIAAAQREGKTCAFIDAEHALDPIYARKLGVDIDNLLCSQPDTGEQALEICDALARSGAVDVIVVDSVAALTPKAEIEGEIGDSHMGLAARMMSQAMRKLAGNLKQSNTLLIFINQIRMKIGVMFGNPETTTGGNALKFYASVRLDIRRIGAVKEGENVVGSETRVKVVKNKIAAPFKQAEFQILYGEGINFYGELVDLGVKEKLIEKAGAWYSYKGEKIGQGKANATAWLKDNPETAKEIEKKVRELLLSNPNSTPDFSVDDSEGVAETNEDF
Question: Does B1 bind?
Answer: binds
